Experimental data: patent US9144594B2, “Cathepsin L mediated diseases and associated methods and products” (University of Miami, priority 2005, dated 2015)
Residue numbers refer to the chain shown, from its start. In names and notes the source's numbering stands.

B1: R725A (podo): podocin promoter-driven dynR725A vector, gene delivery (protein, UniProt Q05193 1-864, looked up, variant R725A)
Dynamin-1: MGNRGMEDLIPLVNRLQDAFSAIGQNADLDLPQIAVVGGQSAGKSSVLENFVGRDFLPRGSGIVTRRPLVLQLVNATTEYAEFLHCKGKKFTDFEEVRLEIEAETDRVTGTNKGISPVPINLRVYSPHVLNLTLVDLPGMTKVPVGDQPPDIEFQIRDMLMQFVTKENCLILAVSPANSDLANSDALKVAKEVDPQGQRTIGVITKLDLMDEGTDARDVLENKLLPLRRGYIGVVNRSQKDIDGKKDITAALAAERKFFLSHPSYRHLADRMGTPYLQKVLNQQLTNHIRDTLPGLRNKLQSQLLSIEKEVEEYKNFRPDDPARKTKALLQMVQQFAVDFEKRIEGSGDQIDTYELSGGARINRIFHERFPFELVKMEFDEKELRREISYAIKNIHGIRTGLFTPDMAFETIVKKQVKKIREPCLKCVDMVISELISTVRQCTKKLQQYPRLREEMERIVTTHIREREGRTKEQVMLLIDIELAYMNTNHEDFIGFANAQQRSNQMNKKKTSGNQDEILVIRKGWLTINNIGIMKGGSKEYWFVLTAENLSWYKDDEEKEKKYMLSVDNLKLRDVEKGFMSSKHIFALFNTEQRNVYKDYRQLELACETQEEVDSWKASFLRAGVYPERVGDKEKASETEENGSDSFMHSMDPQLERQVETIRNLVDSYMAIVNKTVRDLMPKTIMHLMINNTKEFIFSELLANLYSCGDQNTLMEESAEQAQRADEMLRMYHALKEALSIIGDINTTTVSTPMPPPVDDSWLQVQSVPAGRRSPTSSPTPQRRAPAVPPARPGSRGPAPGPPPAGSALGGAPPVPSRPGASPDPFGPPPQVPSRPNRAPPGVPSRSGQASPSRPESPRPPFDL
modifications: podocin promoter vector
notes: podocin promoter-driven dynR725A vector, gene delivery
B2: L356Q (podo): podocin promoter-driven dynL356Q vector, gene delivery (protein, UniProt Q05193 1-864, looked up, variant L356Q)
Dynamin-1: B1 Dynamin-1 with L356Q, A725R
modifications: podocin promoter vector
notes: podocin promoter-driven dynL356Q vector, gene delivery

Experiments:
[1] = test system: dynamin-dynamin interactions; test: FLIM analysis of dynamin-dynamin interactions (self-assembly) in podocytes; type: cell-based, mouse; settings: Table 4; donor GTPase-a488, acceptor Hudy1-a568; in ps
Procedure: In one embodiment the cell-based assay to monitor dynamin-dynamin interactions is performed on a cultured mouse podocyte cell line and the readout of dynamin self-assembly using fluorescence lifetime imaging microscopy (FLIM). FLIM is based on the fluorescence resonance energy transfer (FRET) between the donor and acceptor that shortens the lifetime of the donor if the acceptor distance is within ≈100 Å (10 nm). […] The assay is based on overexpressing dynamin in podocytes, and subsequently staining fixed cells with monoclonal anti-dynamin antibodies that have been conjugated with donor or acceptor florophores. In one embodiment of the invention, Alexa-488 is used as the donor florophore and Alexa-568 is used as the acceptor florophore. In yet another embodiment the donor florophore is dynamin conjugated enhanced-cyan fluorescence protein (ECFP) and the acceptor is dynamin conjugated enhanced yellow-fluorescence protein (EYFP). It will be appreciated by the person of ordinary skill in the art that numerous combinations of FRET donor and acceptors can be used, which are readily available and known. In one embodiment, the FLIM assay is carried out in COS cells and the donor can be selected from the list consisting of: ECFP-WT, ECFP-1690K, ECFP-K44A, ECFP-K694A, and the -acceptor can be selected from the list consisting of: EYFP, EYFP-WT, EYFP-K44A, EYFP-1690K, EYFP-K694A. In yet another embodiment the FLIM assay is performed in podocytes and the donor is GTPase-Alexa488 and the acceptor is selected from the list consisting of: DAM-Alexa568, GTPase-Alexa568, and Hudyl-Alexa568. Cells are stained by mixing both donor and acceptor florophores in equal amounts, and examining the spatially-restricted lifetime shortening in cells detects the localization of dynamin-dynamin interactions in cells. Since dynamin-dynamin interactions are vital for the function of the podocyte, it will be appreciated by the person of ordinary skill in the art that this assay can now be used to screen peptides, small molecules or drugs which can affect these molecular interactions. For example such molecules are cytocholasin D, jasplakinolide, colchisine, dynK44A, dynK694A, dynWT, dynI690K, dynR725A (SEQ ID NO.4), dynL356Q, G358V, (SEQ ID NO.3) any combination thereof, etc.
In order to test the hypothesis that self-assembly of dynamin was protecting its cathepsin L processing in cultured podocytes, dynamin self-assembly in live cells was examined using fluorescence lifetime imaging microscopy (FLIM). FLIM is based on the fluorescence resonance energy transfer (FRET) between the donor and the acceptor that shortens the lifetime of the donor if the acceptor distance is within ≈100 Å (10 nm). […] A FLIM-assay was developed that specifically detects dynamin self-assembly into the higher order structures in podocytes. The assay is based on overexpressing dynamin in podocytes, and subsequently staining fixed cells with monoclonal anti-dynamin antibodies that have been conjugated with either Alexa-488 (donor florophore) or Alexa-568 (acceptor florophore). Cells are stained by mixing both florophores in equal amounts, and examining lifetime of Alexa-488. […] Importantly, FRET only occurred in the vicinity of the membrane. […] Thus, both dominant activating mutants, dynK694A and dynR725A, are impaired for assembly into a supramolecular structures in podocytes under normal conditions. […] Loss of FRET measured FLIM correlates with the loss of p40 proteolytic fragment in cultured podocytes. And presence of p40 in cells expressing dynR725A under normal conditions correlates with the lack of dynR725A assembly detected by FLIM. The opposite is true for the dynWT; lack of p40 under control conditions when FLIM is present, and appearance of the p40 upon LPS treatment with no measurable FRET. […] Finally, proteolytic processing of dynamin after LPS treatment is also observed in vivo. […]

[2] = test system: dynamin-dynamin interactions; test: FLIM analysis of dynamin-dynamin interactions in live COS cells; type: cell-based; settings: for dynamin-dynamin interactions measured by FLIM, in words: COS cells pre-treated
Source text: FLIM is based on the fluorescence resonance energy transfer (FRET) between the donor and acceptor that shortens the lifetime of the donor if the acceptor distance is within ≈100 Å (10 nm). […] To this end, dynamin was tagged with either ECFP or EYFP on its N- and C-termini. Fusion proteins were expressed in COS cells, because these cells are flattened and have minimal background autofluorescence, which allows clear visualization of cells by wide-field microscopy.
The observed decrease in fluorescence lifetime of CFP-dynamin in cells expressing EYFP-dynamin could result from interactions between dynamin monomers within tetramers/dimers, or from interactions between assembled tetramers/dimmers into higher order structures (FIG. 8C). To distinguish these two possibilities, we used FLIM to examine dynI690K. […] The longer average lifetimes of dynI690K than dynwt argue strongly that the assay detects higher order dynamin self-assembly and not tetramer formation.

mice = test: Protein in urine after in vivo gene delivery of dynamin mutants into healthy mice (Bradford); parameters: species or system mouse; settings: Table 5 Basic Phenotype, podocin-driven vectors
Procedure: Next, the level of urinary protein loss following gene delivery of dynamin mutants was examined (Table 2). […] The expression of K44A was associated with severe proteinuria (1.18 mg/ml) at peak gene expression time of 10 hours post injection. The reduction in gene expression was paralleled by a reduction in proteinuria (0.77 mg/ml). Gene transfer of dynR725A caused an increase in proteinuria (0.58 mg/ml). Although this was not a significant increase, it is probable that it is a consequence of the partial podocyte FP effacement seen after gene transfer of dynR725A, and due to increase in the stress fibers formation observed in cultured podocytes.
To explore whether functional dynamin is required for the maintenance of FP morphology in healthy kidneys, it was examined whether expression of dominant negative dynK44A disrupts podocyte function. […] In contrast, podocin driven expression of dynK44A, the dynamin mutant that cannot bind GTP, caused FP effacement (FIG. 21B) and proteinuria (1.1±0.26 mg/ml) at the peak of gene expression […] after gene delivery (FIGS. 21D and 25C). […] In other words, tight regulation of the life-time of the GTP-bound form of dynamin appears to be required for normal FP morphology and ultrafiltration.
CatL plasmids encoding short and long CatL (Goulet et al., Biol Chem 387, 1285-1293 (2004)), Dyn1 plasmids (pcDNA-driven) or p2.5 Podocin-driven (Moeller et al., Genesis 35, 39-42 (2003)) were introduced into mice (n>10, each construct) using the TransIT in vivo gene delivery system according to the manufacturer's instruction (Mirus Bio Corporation, Madison, Wis.). 10 and 24 h after gene delivery, proteinuria was assessed by Multistix 8 SG strips (Bayer Corporation, Elkhart, Ind.), and Bradford protein assay (Sigma, Saint Louis, Mo.). From the same urines the protein creatinine ratio was determined with Albuwell M and Creatinine Companion protein creatinine ELISA kits (Exocell Inc., Philadelphia, Pa.).

[3] = test system: LPS induced mouse proteinuria model; test: LPS induced mouse proteinuria model, protein in urine (prevention and reversal by dynamin gene delivery); type: in vivo; settings: Table 5 Reversal, 2xLPS
Procedure: Next, it was examined whether gene transfer of dynR725A and dynL356Q, G358V was able to protect from LPS induced changes of podocyte FP and thus proteinuria (FIGS. 6A-B); (Table 2B). […] Whereas the application of wildtype dynamin was unable to protect from LPS induced podocyte FP effacement (data not shown) and proteinuria (0.63 mg/ml after 24 hours, p<0.05 and 1.18 mg/ml after 48 hours, p<0.04); table 2B, the co-administration of R725A together with LPS completely abolished the development of proteinuria after 24 hours (0.20 mg/ml). Podocyte FPs remained normal at this timepoint (FIG. 6B). The decline of R725A expression in podocytes was then associated with the development of proteinuria (1.25 mg/ml, 48 h). At this time point, there was noticeable podocyte FP effacement. The application of the cathepsin L resistant dynamin mutant L356Q, G358V together with LPS conferred a partial protection from proteinuria (0.47 mg/ml, P<0.05). This protection was associated with normal appearing podocyte FP (FIG. 6C). Although this protection was not as strong as the one provided by dynR725A, it was prolonged and was still present even after the second dose of LPS ([…], P<0.04). This observation argues that lower expression levels of dynL356Q, G358V are required to protect from LPS induced FP effacement but the presence of dynR725A has the most powerful protection.
Another set of experiments was carried out to study whether dynR725A and dynL356Q, G358V are also useful once there is already established podocyte damage and proteinuria (reversal experiments), (FIGS. 6C, D); (Table 2C). First LPS was injected in mice at 0 and 24 hours and the course of urinary protein loss was documented. On the peak phase of proteinuria at 48 hours after the first LPS injection, either delivery solution (control), dynR725A or dynL356Q, G358V dynamin mutants were transferred and the morphology of podocyte FP was analyzed and the degree of proteinuria was determined 10 hours later when there was strong expression of the transferred gene in podocytes. […] A dramatic reformation of podocyte FPs was also observed (FIG. 6C). The same observation was true for L356Q, G358V (FIG. 6D) which was able to reduce proteinuria from 1.20 mg/ml to 0.71 mg/ml). From the in vitro data it was determined that R725A starts to self assemble into higher order structures in the LPS setting which render dynamin assembly domain protected from cathepsin L cleavage. […] In addition, dominant activating dynR725A proves useful because despite causing podocyte damage in wildtype mice, it can resist cathepsin L cleavage by self assembly in the LPS setting and have strong activity by impairment in its GTP hydrolysis.
If dynamin is a target of CatL, then dynL356Q and dynR725A, which are resistant to CatL cleavage, might protect kidneys from LPS. In control mice, two injections of LPS led to FP effacement (FIG. 21C) and a large increase in proteinuria (FIG. 21E, Con).
Next it was examined whether dynL356Q and dynR725A can reverse already established proteinuria. LPS was injected into mice at 0 and 24 hours. At the peak of proteinuria at 48 hours, mice were injected with dynWT, dynL356Q, or dynR725A, and the degree of proteinuria was analyzed 12 hours post injection. […] The rescue could be achieved with both podocin and CMV-driven protein expression.
All animal studies were approved by the MGH Subcommittee for Research Animal Care. C57BL6 mice were obtained from Jackson Laboratory (Bar Harbor, Me.). CatL−/− mice are in a pure C57BL6 background (Nakagawa et al., Science 280, 450-453 (1998)). LPS induced mouse proteinuria model was utilized as previously described (Reiser et al., J Clin Invest 113, 1390-1397 (2004)). Rat PAN nephrosis model was induced by a single intravenous injection of PAN (180 mg/kg body wt; Sigma-Aldrich, St. Louis, Mo.) (Kim et al., Am J Physiol Renal Physiol 286, F922-935 (2004)). […]

Row | Molecule | Mean Lifetime (γ1) [1] | dynamin-dynamin interactions measured by FLIM, in words [2] | Mean Lifetime (γ1) ps ([2]; Table 3, donor CFP-WT, acceptor YFP-WT, cells treated with the substance) [ps] | Protein in the urine (mice; t = 0) [mg/mL] | Protein in the urine (mice; t = 14 h) | Protein in the urine (mice; t = 24 h) | Protein in the urine ([3]; t = 0) [mg/mL] | Protein in the urine ([3]; t = 48 h) [mg/mL] | Protein in the urine ([3]; t = 58 h)
1 | COc1cc2c(c(OC)c1OC)-c1ccc(OC)c(=O)cc1[C@@H](NC(C)=O)CC2 [Colchisine, reference compound] | 2295 ± 98 | – | – | – | – | – | – | – | –
2 | b-methyl-cyclodextrin [MBCD] | – | occurred unchanged | 916 ± 427 | – | – | – | – | – | –
3 | COC(=O)Nc1nc2ccc(C(=O)c3cccs3)cc2[nH]1 [nocodazole] | – | had no effect on dynamin oligomerization | – | – | – | – | – | – | –
4 | B1 | – | – | – | 0.29 ± 0.10 | 0.79 ± 0.22 (4.4 × 10^−5) mg/ml | 0.45 ± 0.18 (3.6 × 10^−2) mg/ml | 0.23 ± 0.07 | 1.26 ± 0.34 | 0.49 ± 0.23 (1.6 × 10^−4) mg/ml
5 | B2 | – | – | – | 0.24 ± 0.05 | 0.45 ± 0.12 (2.5 × 10^−3) mg/ml | 0.35 ± 0.018 mg/mL | 0.29 ± 0.05 | 1.36 ± 0.49 | 0.73 ± 0.29 (6.9 × 10^−3) mg/ml
